# Measured values published in publication PMC12083921.
# Experiments:
# [1] = target: AKAP79^FAAF, GFP-tagged, full length (human) (human) (UniProt P24588); assay: co-IP
# [2] = target: AKAP79, mRFP-tagged, full length (human) (human) (UniProt P24588); assay: FRAP
# [3] = target: AKAP79^FAAF, mRFP-tagged (human) (human) (UniProt P24588); assay: FRAP
# [4] = target: AKAP79^AF, GFP-tagged, full length (human) (human) (UniProt P24588); assay: co-IP
# [5] = target: AKAP79^FA, GFP-tagged, full length (human) (human) (UniProt P24588); assay: co-IP
# [6] = target: AKAP150, mRFP-tagged (rat) (rat) (UniProt P24587); assay: FRAP
# Sequence of UniProt P24587 (P24587 whole entry): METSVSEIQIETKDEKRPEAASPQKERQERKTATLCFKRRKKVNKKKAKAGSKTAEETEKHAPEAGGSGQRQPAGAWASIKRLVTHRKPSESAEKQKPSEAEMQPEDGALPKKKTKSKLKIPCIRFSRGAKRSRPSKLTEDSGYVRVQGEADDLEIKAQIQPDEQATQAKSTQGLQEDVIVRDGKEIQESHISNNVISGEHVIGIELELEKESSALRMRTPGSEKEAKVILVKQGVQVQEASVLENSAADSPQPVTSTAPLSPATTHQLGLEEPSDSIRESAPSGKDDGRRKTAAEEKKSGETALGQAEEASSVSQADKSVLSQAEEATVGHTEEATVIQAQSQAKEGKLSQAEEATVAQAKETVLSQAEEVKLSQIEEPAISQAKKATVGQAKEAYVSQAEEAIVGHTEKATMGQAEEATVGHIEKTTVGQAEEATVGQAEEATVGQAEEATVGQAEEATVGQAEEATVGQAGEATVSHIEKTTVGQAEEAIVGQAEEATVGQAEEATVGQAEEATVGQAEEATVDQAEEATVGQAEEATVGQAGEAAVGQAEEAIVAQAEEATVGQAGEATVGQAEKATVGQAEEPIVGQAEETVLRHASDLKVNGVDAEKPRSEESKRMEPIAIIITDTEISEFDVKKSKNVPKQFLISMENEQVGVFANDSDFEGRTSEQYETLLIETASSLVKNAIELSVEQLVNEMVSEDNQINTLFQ
Substance,fold RI band intensity over controls [1] [fold],FRAP recovery half-time [2] [s],FRAP recovery rate constant [2] [s⁻¹],FRAP recovery half-time [3] [s],FRAP recovery rate constant [3] [s⁻¹],percent decrease of RII binding against WT AKAP79 [1] [%],percent decrease of RII binding against WT AKAP79 [4] [%],percent decrease of RII binding against WT AKAP79 [5] [%],FRAP recovery half-time [6] [s],FRAP recovery rate constant [6] [s⁻¹]
"PKA type I regulatory subunit alpha (RIα), endogenous (from UniProt P10644 1-381) (natural protein)",3.55,–,–,–,–,–,–,–,–,–
"PKA type I regulatory subunit alpha, iRFP-tagged (RI-iRFP) (from UniProt P10644 1-381) (natural protein)",–,8.74,0.079,20.5,0.034,–,–,–,–,–
"PKA type II regulatory subunit alpha (RIIα), endogenous (from UniProt P13861 1-404) (natural protein)",–,–,–,–,–,45,22,45,–,–
"PKA type II regulatory subunit alpha, iRFP-tagged (RII-iRFP) (from UniProt P13861 1-404) (natural protein)",–,14.4,0.049,11.4,0.062,–,–,–,12.3,0.057
